Assay results: patent publication US20070020717A1 (ARBOR VITA, published 2007)

B1: GST-PDZ fusion protein, PDZ domain of SHANK1 (GID 7025450) (other)
chain: ILKEKTVLLQKKDSEGFGFVLRGAKAQTPIEEFTPTPAFPALQYLESVDEGGVAWRAGLRMGDFLIEVNGQNVVKVGHRQVVNMIRQGGNTLMVKVVMVTRHPDMDEAVQNSS
notes: also called SHANK1 PDZ domain
B2: GST-PDZ fusion protein, PDZ domain of MAST2 (Accession no. AB047005) (other)
chain: ISALGSMRPPIIIHRAGKKYGFTLRAIRVYMGDSDVYTVHHMVWHVEDGGPASEAGLRQGDLITHVNGEPVHGLVHTEVVELILKSGNKVAISTTPLENSS
notes: also called MAST2 PDZ domain
B3: GST-PDZ fusion protein, PDZ domain of SHANK2 (GID 6049185) (other)
chain: ILEEKTVVLQKKDNEGFGFVLRGAKADTPIEEFTPTPAFPALQYLESVDEGGVAWQAGLRTGDFLIEVNNENVVKVGHRQVVNMIRQGGNHLVLKVVTVTRNLDPDDNSS
notes: also called SHANK2 PDZ domain
B4: GST-PDZ fusion protein, PDZ domain of SHANK3 (XM_037493 GID: 51476100) (other)
chain: SDYVIDDKVAVLQKRDHEGFGFVLRGAKAETPIEEFTPTPAFPALQYLESVDVEGVAWRAGLRTGDFLIEVNGVNVVKVGHKQVVALIRQGGNRLVMKVVSVTRKPEEDG
notes: also called SHANK3 PDZ domain

Tests used:
[1] = target: T1, Peptide 1956 (N-terminally biotinylated Tat-COX-2 peptide); assay: ELISA titration of the biotinylated peptide on captured GST-PDZ
T1 construct: also called PL of COX-2

[2] = target: T1, Peptide 1956 (N-terminally biotinylated …); assay: ELISA (modified G assay): GST-PDZ captured by anti-GST antibody, biotinylated peptide, HRP-streptavidin

Binder | binding result [1] | binding result [2]
B1 | binds | 
B2 |  | binds
B3 | binds | 
B4 | binds | 
